Here are results for 18 molecules from US20030068675, “Position dependent recognition of GNN nucleotide triplets by zinc fingers” (published 2003).

Numbering of substitutions follows the chain as printed.

Holding throughout (test): EMSA
What all share (conditions): tags: MBP fusion
For orientation: Mobility shift assays separate free from complexed probe on a gel.

One data set addresses ZFP SBS#387 (synthetic). The protocol: (§1) Affinity is measured by titrating purified protein against a fixed amount of labeled double-stranded oligonucleotide target. The target typically comprises the natural binding site sequence flanked by the 3 bp found in the natural sequence and additional, constant flanking sequences. The natural binding site is typically 9 bp for a three-finger protein and 2×9 bp +intervening bases for a six finger ZFP. […] For the assay the target is added at a concentration of 1 nM or lower (the actual concentration is kept at least 10-fold lower than the expected dissociation constant), purified ZFPs are added at various concentrations, and the reaction is allowed to equilibrate for at least 45 min. In addition the reaction mixture also contains 10 mM Tris (pH 7.5), 100 mM KCl, 1 mM MgCl2, 0.1 mM ZnCl2, 5 mM DTT, 10% glycerol, 0.02% BSA. (NB: in earlier assays poly d(IC) was also added at […].) The equilibrated reactions are loaded onto a 10% polyacrylamide gel, which has been pre-run for 45 min in Tris/glycine buffer, then bound and unbound labeled target is resolved by electrophoresis at 150V.

The target in a further data set is ZFP SBS#388 (synthetic). The protocol:
as §1

For a further data set, the target named is T1, ZFP SBS#494 (synthetic).
T1 chain: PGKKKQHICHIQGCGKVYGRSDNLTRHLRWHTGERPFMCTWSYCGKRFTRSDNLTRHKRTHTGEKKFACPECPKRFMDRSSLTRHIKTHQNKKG
The method, then: as §1

In the next data set the target is T2, ZFP SBS#378 (synthetic).
T2 chain: T1 chain
The method, then:
as §1

The next data set has as its target T3, ZFP SBS#379 (synthetic).
T3 chain: T1 chain with D78E, S80G, S81T, T83A
The protocol:
as §1

The next data set deals with T4, ZFP SBS#410 (synthetic).
T4 chain: T1 chain with N23A, R50Q, D52G, D78Q, R79S, S80G
The protocol:
as §1

The target of a further data set is ZFP SBS#397 (synthetic). The protocol:
as §1

For another data set, the target named is ZFP SBS#396 (synthetic). The method, then:
as §1

In a further data set the target is T5, ZFP SBS#385 (synthetic).
T5 chain: T1 chain with N53T, T55K, R56K, D78R, R79S, S80D, S81H, T83S
The protocol: as §1

The next data set has as its target T6, ZFP SBS#386 (synthetic, UniProt P08047).
T6 chain: T1 chain with N53E, T55Q, D78R, R79S, S80D, S81H, T83S
The protocol:
as §1

In the next data set the target is T7, ZFP SBS#493 (synthetic, UniProt P08047).
T7 chain: T1 chain with N23T, T25K, R26K, N53S, T55A, D78R, R79S, S80D, S81H, T83S
The protocol:
as §1

In another data set the target is T8, ZFP SBS#384 (synthetic).
T8 chain: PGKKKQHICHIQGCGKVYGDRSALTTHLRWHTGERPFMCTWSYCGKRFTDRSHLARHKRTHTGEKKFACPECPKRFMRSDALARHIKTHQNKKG
The protocol: as §1

The target of another data set is T9, ZFP SBS#390 (synthetic).
T9 chain: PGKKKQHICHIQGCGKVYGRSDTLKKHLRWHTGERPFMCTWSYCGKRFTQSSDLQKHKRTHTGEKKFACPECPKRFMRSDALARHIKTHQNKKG
The protocol:
as §1

The target of a further data set is T10, ZFP SBS#501 (synthetic).
T10 chain: T8 chain with D20N, S22A, A23T, T25A, T26R, D50R, R51S, S52D, A55S
The protocol:
as §1

The next data set deals with ZFP SBS#510 (synthetic). The protocol: as §1
The target in the next data set is ZFP SBS#511 (synthetic). The method, then: as §1
A further data set deals with ZFP SBS#509 (synthetic). The method, then: as §1
A further data set has as its target T11, ZFP SBS#400 (synthetic).
T11 chain: T1 chain with N23A, T25A, N53S, T55A, D78Q, R79S, S80G, S81D, T83R, R84T
The method, then:
as §1

The target of the next data set is ZFP SBS#412 (synthetic). The method, then:
as §1

In a further data set the target is ZFP SBS#337 (synthetic). The method, then: as §1
In another data set the target is ZFP SBS#339 (synthetic). The method, then: as §1
The next data set addresses ZFP SBS#338 (synthetic). The method, then:
as §1

For the next data set, the target named is ZFP SBS#343 (synthetic). The method, then:
as §1

For the next data set, the target named is ZFP SBS#346 (synthetic). The method, then:
as §1

Another data set deals with ZFP SBS#345 (synthetic). The method, then:
as §1

A further data set addresses ZFP SBS#344 (synthetic). The protocol: as §1
In a further data set the target is T12, ZFP SBS#340 (synthetic).
T12 chain: T1 chain with D22A, N23D, N53H, R56T, D78E, S80D, S81H, T83R, R84T
The method, then:
as §1

A further data set has as its target T13, ZFP SBS#507 (synthetic).
T13 chain: T9 chain with T23N, K25A, K26R, S51R, D53A, Q55A, K56R, A81N
The method, then:
as §1

A further data set addresses T14, ZFP SBS#508 (synthetic).
T14 chain: T9 chain with T23N, K25A, K26R, S52A, D53T, Q55A, K56R, A81N
The method, then: as §1

The target of another data set is T15, ZFP SBS#409 (synthetic).
T15 chain: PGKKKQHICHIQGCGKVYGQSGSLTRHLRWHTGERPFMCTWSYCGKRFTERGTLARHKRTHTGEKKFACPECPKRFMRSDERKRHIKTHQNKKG
The method, then:
as §1

The target in a further data set is T16, ZFP SBS#406 (synthetic).
T16 chain: T15 chain with Q20R, G22D, S23E, E50D, G52S, T53S, A55T
The protocol: as §1

Another data set addresses T17, ZFP SBS#405 (synthetic).
T17 chain: T15 chain with Q20R, G22D, S23E
The method, then:
as §1

A further data set concerns the target T18, ZFP SBS#407 (synthetic).
T18 chain: T15 chain with G22W, S23E
The method, then: as §1

In the next data set the target is T19, ZFP SBS#408 (synthetic).
T19 chain: T15 chain with G22W, S23E, E50D, G52S, T53S, A55T
The protocol:
as §1

The next data set has as its target ZFP SBS#502 (synthetic, UniProt P08047). The method, then: as §1
The target in a further data set is ZFP SBS#413 (synthetic). The method, then:
as §1

Sequence of ZFP SBS#502 (P08047 other isoform, or with tags, fused parts or gaps): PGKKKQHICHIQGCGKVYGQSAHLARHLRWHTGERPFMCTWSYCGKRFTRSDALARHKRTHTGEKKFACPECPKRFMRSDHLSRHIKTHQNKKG
Sequence of ZFP SBS#510 (synthetic) (chain, as listed by the source): as the sequence (P08047 other isoform, or with tags, fused parts or gaps) above, with A22G, H23N, A53N, R78N, S79R, D80A, H81T, S83A counted along it
Sequence of ZFP SBS#388 (synthetic) (chain, as listed by the source): as the sequence (P08047 other isoform, or with tags, fused parts or gaps) above, with A22G, H23D, A25T, A53N, R78D, S79R, D80S, S83A counted along it
Sequence of ZFP SBS#509 (synthetic) (chain, as listed by the source): as the sequence (P08047 other isoform, or with tags, fused parts or gaps) above, with Q20R, A22D, A25T, R26T, R78D, S79R, D80S, H81A, S83A counted along it
Sequence of ZFP SBS#511 (synthetic) (chain, as listed by the source): as the sequence (P08047 other isoform, or with tags, fused parts or gaps) above, with A22G, H23N, A53N, R78Q, D80S, H81A, S83A counted along it
Sequence of ZFP SBS#337 (synthetic) (chain, as listed by the source): as the sequence (P08047 other isoform, or with tags, fused parts or gaps) above, with Q20R, H23D, A25T, A53H, A55T, R78E, S79R, D80Q, S83A, R84T counted along it
Sequence of ZFP SBS#413 (synthetic) (chain, as listed by the source): as the sequence (P08047 other isoform, or with tags, fused parts or gaps) above, with A22G, H23S, A25T, A53H, A55T, R56T, H81E, L82R, S83K counted along it
Sequence of ZFP SBS#412 (synthetic) (chain, as listed by the source): as the sequence (P08047 other isoform, or with tags, fused parts or gaps) above, with A22G, H23S, A25T, A53H, A55T, R56T, H81E, L82R, S83K counted along it
Sequence of ZFP SBS#396 (synthetic) (chain, as listed by the source): as the sequence (P08047 other isoform, or with tags, fused parts or gaps) above, with A22G, H23S, A25T, R50Q, D52G, A53H, A55Q, H81T, S83K, R84K counted along it
Sequence of ZFP SBS#338 (synthetic) (chain, as listed by the source): as the sequence (P08047 other isoform, or with tags, fused parts or gaps) above, with Q20R, H23D, A25T, A53H, A55T, R78E, S79R, S83R, R84T counted along it
Sequence of ZFP SBS#344 (synthetic) (chain, as listed by the source): as the sequence (P08047 other isoform, or with tags, fused parts or gaps) above, with A22G, H23S, A25T, A53H, A55T, R78E, S79R, S83R, R84T counted along it
Sequence of ZFP SBS#339 (synthetic) (chain, as listed by the source): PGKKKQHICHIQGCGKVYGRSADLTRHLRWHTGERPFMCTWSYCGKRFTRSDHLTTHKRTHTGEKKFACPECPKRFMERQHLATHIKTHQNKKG
Sequence of ZFP SBS#397 (synthetic) (chain, as listed by the source): as the sequence (P08047 other isoform, or with tags, fused parts or gaps) above, with A22G, H23D, A25T, R50Q, D52G, A53H, A55Q, H81T, S83K, R84K counted along it
Sequence of ZFP SBS#387 (synthetic) (chain, as listed by the source): as the sequence (P08047 other isoform, or with tags, fused parts or gaps) above, with A22G, H23S, A25T, A53N, R78D, S79R, D80S, S83A counted along it

B1: GGCGAGGCAA (dsDNA)
DNA 1: GGCGAGGCAA
DNA 2: TTGCCTCGCC
For orientation: Kd means the constant that tells how readily two partners part at equilibrium. Low readings indicate tighter binding, high ones weaker binding. Turning to B1, the Kd in the data set with ZFP SBS#387 came to 2.5 nM; with ZFP SBS#388 it was 28 nM.

B2: GCCGAGGAGA (dsDNA)
DNA 1: GCCGAGGAGA
DNA 2: TCTCCTCGGC
For the molecule B2, the Kd in the data set with ZFP SBS#494 was determined as 90 nM; in the data set with ZFP SBS#378, 31 nM; in the data set with ZFP SBS#379, 3 nM.

B3: GCAGAAGTC (dsDNA)
DNA 1: GCAGAAGTC
DNA 2: GACTTCTGC
Molecule B3 registered a Kd in the data set with ZFP SBS#410 of 3 nM.

B4: GCGGGAGCAG (dsDNA)
DNA 1: GCGGGAGCAG
DNA 2: CTGCTCCCGC
As to B4, the Kd in the data set with ZFP SBS#397 stood at 25 nM; in the data set with ZFP SBS#396, 18.8 nM.

B5: GGGGCGGAGC (dsDNA)
DNA 1: GGGGCGGAGC
DNA 2: GCTCCGCCCC
For the molecule B5, the Kd was 1.2 nM with ZFP SBS#385 and 0.4 nM with ZFP SBS#386.

B6: GGGGTGGCGG (dsDNA)
DNA 1: GGGGTGGCGG
DNA 2: CCGCCACCCC
Turning to B6, the affinity in the data set with ZFP SBS#493, expressed as Kd, was 300 nM.

B7: GTGGGCTTCA (dsDNA)
DNA 1: GTGGGCTTCA
DNA 2: TGAAGCCCAC
B7: in the data set with ZFP SBS#384, the affinity, expressed as Kd, was 60 nM.

B8: GTGGCAGCGG (dsDNA)
DNA 1: GTGGCAGCGG
DNA 2: CCGCTGCCAC
B8 gave a Kd with ZFP SBS#390 of 20 nM.

B9: GTGGGGGTT (dsDNA)
DNA 1: GTGGGGGTT
DNA 2: AACCCCCAC
B9 yielded a Kd in the data set with ZFP SBS#501 of 8 nM.

B10: GTTGAGGAAG (dsDNA)
DNA 1: GTTGAGGAAG
DNA 2: CTTCCTCAAC
With B10, the Kd with ZFP SBS#510 and in the data set with ZFP SBS#511 was 100 nM each time.

B11: GTCGTGTGGC (dsDNA)
DNA 1: GTCGTGTGGC
DNA 2: GCCACACGAC
B11 came in with a Kd with ZFP SBS#509 of 100 nM.

B12: TCAGTGGTGG (dsDNA)
DNA 1: TCAGTGGTGG
DNA 2: CCACCACTGA
On to B12, for which, in the data set with ZFP SBS#400, binding was characterised by a dissociation constant (Kd) of 40 nM.

B13: GCGTGGGCG (dsDNA)
DNA 1: GCGTGGGCG
DNA 2: CGCCCACGC
B13 had a Kd with ZFP SBS#412 of 5 nM.

B14: TGCGGGGCAA (dsDNA)
DNA 1: TGCGGGGCAA
DNA 2: TTGCCCCGCA
Turning to B14, the Kd amounted to 24 nM with ZFP SBS#337; 64 nM in the data set with ZFP SBS#339; 8 nM with ZFP SBS#338; 8 nM with ZFP SBS#343; 64 nM with ZFP SBS#346; 96 nM with ZFP SBS#345. For the same molecule, the Kd worked out at 6 nM with ZFP SBS#344 and 48 nM with ZFP SBS#340.

B15: GAGGTAGAGG (dsDNA)
DNA 1: GAGGTAGAGG
DNA 2: CCTCTACCTC
With B15, the Kd with ZFP SBS#507 and in the data set with ZFP SBS#508 was 10 nM throughout.

B16: GCGGCCGCA (dsDNA)
DNA 1: GCGGCCGCA
DNA 2: TGCGGCCGC
As for B16, the Kd with ZFP SBS#409 turned out to be 50 nM; with ZFP SBS#406 it was 110 nM; with ZFP SBS#405, 110 nM; with ZFP SBS#407 it was 410 nM; with ZFP SBS#408, 380 nM.

B17: GGGGTGGGA (dsDNA)
DNA 1: GGGGTGGGA
DNA 2: TCCCACCCC
In the data set with ZFP SBS#502, B17 came in with a Kd of 60 nM.

B18: GCGTGGGCA (dsDNA)
DNA 1: GCGTGGGCA
DNA 2: TGCCCACGC
As for B18, the Kd in the data set with ZFP SBS#413 stood at 5 nM.
